The record followed here is the supplement of paper PMC5998384.

Data set [1] concerns HeLa Kyoto. In words: thermal stability score vs G1/S (z-score of summed log2 fold changes over temperatures); higher = more thermally stable than in G1/S.
Data set [2] relates to HeLa Kyoto. In words: solubility in G1/S (NP-40 vs SDS abundance) (log2 ratio); higher = more soluble. To be noted: cell cycle stage: G1/S.
Data set [3] deals with HeLa Kyoto. In words: melting temperature (median over replicates), in situ; higher = more thermally stable.
For data set [4], the system named is HeLa Kyoto. The data set is described as follows: solubility change mitosis vs G1/S (difference of NP-40 vs SDS log2 ratios) (log2 ratio difference); higher = more soluble in mitosis.
The mark [5] stands for this setting: cell cycle stage: early G1 (4.5 h after nocodazole release).
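Throughout, for melting temperature (median over replicates), in situ: HeLa Kyoto cells synchronized by double thymidine or nocodazole block, proteins quantified by TMT10plex mass spectrometry, three independent biological replicates.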
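Throughout, for solubility change mitosis vs G1/S (difference of NP-40 vs SDS log2 ratios): synchronized HeLa Kyoto cells (double thymidine block for G1/S, nocodazole release for mitosis), protein amounts in NP-40 versus SDS lysates quantified by mass spectrometry, three biological replicates.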
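Throughout, for solubility in G1/S (NP-40 vs SDS abundance): HeLa Kyoto cells arrested at G1/S by double thymidine block, proteins quantified by TMT10plex mass spectrometry in mild NP-40 versus SDS extracts, three biological replicates.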
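Throughout, for thermal stability score vs G1/S (z-score of summed log2 fold changes over temperatures): synchronized HeLa Kyoto cells, proteins quantified by TMT10plex mass spectrometry, three biological replicates, mitosis taken 0.5 h after nocodazole release, G1/S directly after double thymidine block.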

In the case of “MEKSRMNLPKGPDTLCFDKDEFMKEDFDVDHFVSDCRKRVQLEELRDDLELYYKLLKTAMVELINKDYADFVNLSTNLVGMDKALNQLSVPLGQLREEVLSLRSSVSEGIRAVDERMSKQEDIRKKKMCVLRLIQVIRSVEKIEKILNSQSSKETSALEASSPLLTGQILERIATEFNQLQFHAVQSKGMPLLDKVRPRIAGITAMLQQSLEGLLLEGLQTSDVDIIRHCLRTYATIDKTRDAEALVGQVLVKPYIDEVIIEQFVESHPNGLQVMYNKLLEFVPHHCRLLREVTGGAISSEKGNTVPGYDFLVNSVWPQIVQGLEEKLPSLFNPGNPDAFHEKYTISMDFVRRLERQCGSQASVKRLRAHPAYHSFNKKWNLPVYFQIRFREIAGSLEAALTDVLEDAPAESPYCLLASHRTWSSLRRCWSDEMFLPLLVHRLWRLTLQILARYSVFVNELSLRPISNESPKEIKKPLVTGSKEPSITQGNTEDQGSGPSETKPVVSISRTQLVYVVADLDKLQEQLPELLEIIKPKLEMIGFKNFSSISAALEDSQSSFSACVPSLSSKIIQDLSDSCFGFLKSALEVPRLYRRTNKEVPTTASSYVDSALKPLFQLQSGHKDKLKQAIIQQWLEGTLSESTHKYYETVSDVLNSVKKMEESLKRLKQARKTTPANPVGPSGGMSDDDKIRLQLALDVEYLGEQIQKLGLQASDIKSFSALAELVAAAKDQATAEQP [COG2]”, the thermal stability score with HeLa Kyoto [1] (setting [5]) was 0.195; with HeLa Kyoto [1] (cell cycle stage: mitosis), 0.834. For the same sequence, the “solubility in G1/S (log2)” value in the data set with HeLa Kyoto [2] worked out at 0.0645. Further, the melting temperature in the data set with HeLa Kyoto [3] (cell cycle stage: G1/S) was 50.2 °C; with HeLa Kyoto [3] (cell cycle stage: mitosis) it was 49.4 °C. Also, the “solubility change mitosis (log2)” value in the data set on HeLa Kyoto [4] is -0.0298.

With “MEKTELIQKAKLAEQAERYDDMATCMKAVTEQGAELSNEERNLLSVAYKNVVGGRRSAWRVISSIEQKTDTSDKKLQLIKDYREKVESELRSICTTVLELLDKYLIANATNPESKVFYLKMKGDYFRYLAEVACGDDRKQTIDNSQGAYQEAFDISKKEMQPTHPIRLGLALNFSVFYYEILNNPELACTLAKTAFDEAIAELDTLNEDSYKDSTLIMQLLRDNLTLWTSDSAGEECDAAEGAEN [YWHAQ]”, the thermal stability score stood at 0.526 with HeLa Kyoto [1] (setting [5]) and 2.69 in the data set with HeLa Kyoto [1] (cell cycle stage: mitosis). The “solubility in G1/S (log2)” value in the data set with HeLa Kyoto [2] worked out at 0.435. Moreover, the melting temperature with HeLa Kyoto [3] (cell cycle stage: G1/S) stood at 51.4 °C; in the data set on HeLa Kyoto [3] (cell cycle stage: mitosis) it was 52 °C. Further, the “solubility change mitosis (log2)” value with HeLa Kyoto [4] worked out at 0.372.

In the case of “MEKTLETVPLERKKREKEQFRKLFIGGLSFETTEESLRNYYEQWGKLTDCVVMRDPASKRSRGFGFVTFSSMAEVDAAMAARPHSIDGRVVEPKRAVAREESGKPGAHVTVKKLFVGGIKEDTEEHHLRDYFEEYGKIDTIEIITDRQSGKKRGFGFVTFDDHDPVDKIVLQKYHTINGHNAEVRKALSRQEMQEVQSSRSGRGGNFGFGDSRGGGGNFGPGPGSNFRGGSDGYGSGRGFGDGYNGYGGGPGGGNFGGSPGYGGGRGGYGGGGPGYGNQGGGYGGGYDNYGGGNYGSGNYNDFGNYNQQPSNYGPMKSGNFGGSRNMGGPYGGGNYGPGGSGGSGGYGGRSRY [HNRNPA2B1]”, the thermal stability score came to 5.29 in the data set on HeLa Kyoto [1] (setting [5]) and 6.68 in the data set on HeLa Kyoto [1] (cell cycle stage: mitosis). Further, the “solubility in G1/S (log2)” value in the data set with HeLa Kyoto [2] was -0.087. Further, the melting temperature with HeLa Kyoto [3] (cell cycle stage: G1/S) amounted to 48.1 °C; in the data set with HeLa Kyoto [3] (cell cycle stage: mitosis), 49 °C. In addition, in the data set with HeLa Kyoto [4], the “solubility change mitosis (log2)” value worked out at 0.321.

“MEKTQETVQRILLEPYKYLLQLPGKQVRTKLSQAFNHWLKVPEDKLQIIIEVTEMLHNASLLIDDIEDNSKLRRGFPVAHSIYGIPSVINSANYVYFLGLEKVLTLDHPDAVKLFTRQLLELHQGQGLDIYWRDNYTCPTEEEYKAMVLQKTGGLFGLAVGLMQLFSDYKEDLKPLLNTLGLFFQIRDDYANLHSKEYSENKSFCEDLTEGKFSFPTIHAIWSRPESTQVQNILRQRTENIDIKKYCVHYLEDVGSFEYTRNTLKELEAKAYKQIDARGGNPELVALVKHLSKMFKEENE [GGPS1]”: the figures for the thermal stability score in the data set on HeLa Kyoto [1] (setting [5]) and in the data set on HeLa Kyoto [1] (cell cycle stage: mitosis) were -1.73 and -1.98, respectively. Also, the “solubility in G1/S (log2)” value in the data set with HeLa Kyoto [2] was 0.163. In addition, the melting temperature with HeLa Kyoto [3] (cell cycle stage: G1/S) is 55.2 °C; in the data set with HeLa Kyoto [3] (cell cycle stage: mitosis) it was 56 °C. The “solubility change mitosis (log2)” value in the data set on HeLa Kyoto [4] was -0.0913.

Regarding “MELEDGVVYQEEPGGSGAVMSERVSGLAGSIYREFERLIGRYDEEVVKELMPLVVAVLENLDSVFAQDQEHQVELELLRDDNEQLITQYEREKALRKHAEEKFIEFEDSQEQEKKDLQTRVESLESQTRQLELKAKNYADQISRLEEREAELKKEYNALHQRHTEMIHNYMEHLERTKLHQLSGSDQLESTAHSRIRKERPISLGIFPLPAGDGLLTPDAQKGGETPGSEQWKFQELSQPRSHTSLKVSNSPEPQKAVEQEDELSDVSQGGSKATTPASTANSDVATIPTDTPLKEENEGFVKVTDAPNKSEISKHIEVQVAQETRNVSTGSAENEEKSEVQAIIESTPELDMDKDLSGYKGSSTPTKGIENKAFDRNTESLFEELSSAGSGLIGDVDEGADLLGMGREVENLILENTQLLETKNALNIVKNDLIAKVDELTCEKDVLQGELEAVKQAKLKLEEKNRELEEELRKARAEAEDARQKAKDDDDSDIPTAQRKRFTRVEMARVLMERNQYKERLMELQEAVRWTEMIRASRENPAMQEKKRSSIWQFFSRLFSSSSNTTKKPEPPVNLKYNAPTSHVTPSVKKRSSTLSQLPGDKSKAFDFLSEETEASLASRREQKREQYRQVKAHVQKEDGRVQAFGWSLPQKYKQVTNGQGENKMKNLPVPVYLRPLDEKDTSMKLWCAVGVNLSGGKTRDGGSVVGASVFYKDVAGLDTEGSKQRSASQSSLDKLDQELKEQQKELKNQEELSSLVWICTSTHSATKVLIIDAVQPGNILDSFTVCNSHVLCIASVPGARETDYPAGEDLSESGQVDKASLCGSMTSNSSAETDSLLGGITVVGCSAEGVTGAATSPSTNGASPVMDKPPEMEAENSEVDENVPTAEEATEATEGNAGSAEDTVDISQTGVYTEHVFTDPLGVQIPEDLSPVYQSSNDSDAYKDQISVLPNEQDLVREEAQKMSSLLPTMWLGAQNGCLYVHSSVAQWRKCLHSIKLKDSILSIVHVKGIVLVALADGTLAIFHRGVDGQWDLSNYHLLDLGRPHHSIRCMTVVHDKVWCGYRNKIYVVQPKAMKIEKSFDAHPRKESQVRQLAWVGDGVWVSIRLDSTLRLYHAHTYQHLQDVDIEPYVSKMLGTGKLGFSFVRITALMVSCNRLWVGTGNGVIISIPLTETNKTSGVPGNRPGSVIRVYGDENSDKVTPGTFIPYCSMAHAQLCFHGHRDAVKFFVAVPGQVISPQSSSSGTDLTGDKAGPSAQEPGSQTPLKSMLVISGGEGYIDFRMGDEGGESELLGEDLPLEPSVTKAERSHLIVWQVMYGNE [SPAG9]”, the figures for the thermal stability score in the data set with HeLa Kyoto [1] (setting [5]) and in the data set on HeLa Kyoto [1] (cell cycle stage: mitosis) were 0.672 and 0.413, respectively. Further, the “solubility in G1/S (log2)” value in the data set on HeLa Kyoto [2] amounted to 0.00549. Moreover, the melting temperature in the data set with HeLa Kyoto [3] (cell cycle stage: G1/S) was determined as 51.3 °C; with HeLa Kyoto [3] (cell cycle stage: mitosis) it was 50.6 °C. Further, in the data set on HeLa Kyoto [4], the “solubility change mitosis (log2)” value was -0.168.
